Test results from article PMC5916898, “Global profiling of protein–DNA and protein–nucleosome binding affinities using quantitative mass spectrometry”.

T1: ZNF281 (Homo sapiens, UniProt Q9Y2X9)
T1 sequence: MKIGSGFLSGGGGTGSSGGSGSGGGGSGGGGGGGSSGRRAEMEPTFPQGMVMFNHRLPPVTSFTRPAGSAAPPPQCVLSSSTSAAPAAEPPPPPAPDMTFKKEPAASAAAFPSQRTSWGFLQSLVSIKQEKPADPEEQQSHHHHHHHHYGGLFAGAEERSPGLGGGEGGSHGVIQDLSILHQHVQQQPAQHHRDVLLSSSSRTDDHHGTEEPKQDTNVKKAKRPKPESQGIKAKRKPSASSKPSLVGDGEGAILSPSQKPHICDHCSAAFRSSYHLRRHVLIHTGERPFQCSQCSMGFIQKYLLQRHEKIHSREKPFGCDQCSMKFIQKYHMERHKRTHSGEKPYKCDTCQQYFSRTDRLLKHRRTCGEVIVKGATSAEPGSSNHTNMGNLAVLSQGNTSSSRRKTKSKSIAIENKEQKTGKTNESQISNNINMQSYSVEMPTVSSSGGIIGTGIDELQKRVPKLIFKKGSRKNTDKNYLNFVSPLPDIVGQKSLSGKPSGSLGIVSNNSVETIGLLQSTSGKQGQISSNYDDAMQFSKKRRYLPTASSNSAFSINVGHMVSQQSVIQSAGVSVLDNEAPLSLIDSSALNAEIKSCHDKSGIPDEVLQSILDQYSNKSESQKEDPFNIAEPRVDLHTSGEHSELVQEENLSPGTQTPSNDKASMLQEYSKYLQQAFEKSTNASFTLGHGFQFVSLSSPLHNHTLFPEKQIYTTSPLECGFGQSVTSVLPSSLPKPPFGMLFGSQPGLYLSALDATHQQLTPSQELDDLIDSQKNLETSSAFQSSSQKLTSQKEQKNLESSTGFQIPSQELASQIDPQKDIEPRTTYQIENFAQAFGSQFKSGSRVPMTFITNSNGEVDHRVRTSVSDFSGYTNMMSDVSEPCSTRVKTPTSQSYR

T2: VEZF1 (Homo sapiens, UniProt Q14119)
T2 sequence: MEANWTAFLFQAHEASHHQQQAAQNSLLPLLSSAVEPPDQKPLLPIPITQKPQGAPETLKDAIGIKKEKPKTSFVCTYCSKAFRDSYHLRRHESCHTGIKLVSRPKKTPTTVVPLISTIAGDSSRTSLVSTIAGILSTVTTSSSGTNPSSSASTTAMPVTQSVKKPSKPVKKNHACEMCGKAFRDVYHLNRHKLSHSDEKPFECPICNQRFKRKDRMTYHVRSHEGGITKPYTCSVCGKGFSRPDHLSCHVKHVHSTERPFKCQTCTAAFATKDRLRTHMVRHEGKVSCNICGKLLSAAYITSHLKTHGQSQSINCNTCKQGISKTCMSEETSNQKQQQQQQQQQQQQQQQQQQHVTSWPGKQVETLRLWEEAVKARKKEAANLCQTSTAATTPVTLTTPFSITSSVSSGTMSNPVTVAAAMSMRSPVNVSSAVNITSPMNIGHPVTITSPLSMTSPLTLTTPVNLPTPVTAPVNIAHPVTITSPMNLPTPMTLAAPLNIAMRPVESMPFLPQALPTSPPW

B1: TEAD (dsDNA)
DNA 1: TCGGGACCCAGGCCTGGAATGTTTCCACC
DNA 2: GGTGGAAACATTCCAGGCCTGGGTCCCGA
B2: SP/KLF wild-type (dsDNA)
DNA 1: GAGAGCCCCGCCCCCTGGCT
DNA 2: AGCCAGGGGGCGGGGCTCTC

Experiments:
TEAD4 = TEAD4 (Homo sapiens, UniProt Q15561); test: pulldown; 150 mM NaCl, 50 mM Tris pH 8, 0.25% NP-40, 1 mM TCEP; 4 C, 2 h; 100 ug HeLa nuclear lysate; settings: protein: extract; label: 5' biotin (strand 1)
TEAD4, sequence (Q15561 whole entry): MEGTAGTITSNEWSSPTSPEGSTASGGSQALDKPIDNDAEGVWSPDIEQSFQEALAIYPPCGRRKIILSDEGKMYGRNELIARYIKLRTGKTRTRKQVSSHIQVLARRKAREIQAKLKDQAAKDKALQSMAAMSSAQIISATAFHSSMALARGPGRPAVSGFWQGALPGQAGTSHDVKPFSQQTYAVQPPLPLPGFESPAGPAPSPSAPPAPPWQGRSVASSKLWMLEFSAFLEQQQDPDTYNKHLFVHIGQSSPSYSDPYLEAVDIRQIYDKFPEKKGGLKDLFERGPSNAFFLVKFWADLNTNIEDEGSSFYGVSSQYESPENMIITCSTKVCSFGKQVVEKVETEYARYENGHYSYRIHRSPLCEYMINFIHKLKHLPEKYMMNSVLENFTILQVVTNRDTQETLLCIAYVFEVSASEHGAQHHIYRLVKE

KLF4 = KLF4 (Homo sapiens, UniProt O43474); test: competition; 150 mM NaCl, 50 mM Tris pH 8, 0.25% NP-40, 1 mM TCEP; 4 C, 2 h; 100 ug HeLa nuclear lysate; free competitor against 200 nM immobilised SP/KLF wild-type; settings: protein: extract
SP3 = SP3 (Homo sapiens, UniProt Q02447); test: as above; settings: protein: extract
SP3, sequence (Q02447 whole entry): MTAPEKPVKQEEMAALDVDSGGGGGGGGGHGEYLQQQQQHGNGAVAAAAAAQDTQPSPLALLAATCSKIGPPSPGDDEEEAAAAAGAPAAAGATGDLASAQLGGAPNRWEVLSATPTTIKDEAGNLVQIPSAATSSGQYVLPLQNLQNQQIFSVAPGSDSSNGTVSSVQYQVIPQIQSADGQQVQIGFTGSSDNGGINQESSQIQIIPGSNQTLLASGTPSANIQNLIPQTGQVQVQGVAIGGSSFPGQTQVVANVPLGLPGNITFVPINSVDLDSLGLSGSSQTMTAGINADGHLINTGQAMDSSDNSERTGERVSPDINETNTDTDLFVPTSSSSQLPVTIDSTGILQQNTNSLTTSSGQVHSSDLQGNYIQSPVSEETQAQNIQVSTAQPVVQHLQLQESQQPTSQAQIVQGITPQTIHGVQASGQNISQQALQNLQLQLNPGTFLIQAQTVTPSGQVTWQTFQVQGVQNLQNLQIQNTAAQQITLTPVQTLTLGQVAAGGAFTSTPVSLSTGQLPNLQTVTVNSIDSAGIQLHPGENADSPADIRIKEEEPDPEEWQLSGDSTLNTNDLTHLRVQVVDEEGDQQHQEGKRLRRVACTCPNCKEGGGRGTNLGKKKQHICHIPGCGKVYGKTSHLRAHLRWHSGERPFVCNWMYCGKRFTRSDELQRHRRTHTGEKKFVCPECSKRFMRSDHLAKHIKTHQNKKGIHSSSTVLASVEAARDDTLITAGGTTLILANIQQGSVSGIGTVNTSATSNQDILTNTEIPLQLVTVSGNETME

ZNF281 = target: T1, ZNF281; test: as above; settings: protein: extract
KLF10 = KLF10 (Homo sapiens, UniProt Q13118); test: as above; settings: protein: extract
KLF10, sequence (Q13118 whole entry): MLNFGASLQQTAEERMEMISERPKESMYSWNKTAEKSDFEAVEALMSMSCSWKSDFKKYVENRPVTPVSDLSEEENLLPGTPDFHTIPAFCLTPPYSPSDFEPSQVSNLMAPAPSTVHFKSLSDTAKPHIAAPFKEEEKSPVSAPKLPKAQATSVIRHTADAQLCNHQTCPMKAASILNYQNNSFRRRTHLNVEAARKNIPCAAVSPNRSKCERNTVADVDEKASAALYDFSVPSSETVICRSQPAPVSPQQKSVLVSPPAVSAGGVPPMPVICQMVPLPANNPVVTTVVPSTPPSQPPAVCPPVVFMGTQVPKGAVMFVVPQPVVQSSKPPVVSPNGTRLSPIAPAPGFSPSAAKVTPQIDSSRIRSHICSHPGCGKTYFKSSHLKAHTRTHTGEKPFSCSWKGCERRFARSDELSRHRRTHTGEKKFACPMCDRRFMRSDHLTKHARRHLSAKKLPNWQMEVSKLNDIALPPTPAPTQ

ZBTB7A = ZBTB7A (Homo sapiens, UniProt O95365); test: as above; settings: protein: extract
ZBTB7A, sequence (O95365 whole entry): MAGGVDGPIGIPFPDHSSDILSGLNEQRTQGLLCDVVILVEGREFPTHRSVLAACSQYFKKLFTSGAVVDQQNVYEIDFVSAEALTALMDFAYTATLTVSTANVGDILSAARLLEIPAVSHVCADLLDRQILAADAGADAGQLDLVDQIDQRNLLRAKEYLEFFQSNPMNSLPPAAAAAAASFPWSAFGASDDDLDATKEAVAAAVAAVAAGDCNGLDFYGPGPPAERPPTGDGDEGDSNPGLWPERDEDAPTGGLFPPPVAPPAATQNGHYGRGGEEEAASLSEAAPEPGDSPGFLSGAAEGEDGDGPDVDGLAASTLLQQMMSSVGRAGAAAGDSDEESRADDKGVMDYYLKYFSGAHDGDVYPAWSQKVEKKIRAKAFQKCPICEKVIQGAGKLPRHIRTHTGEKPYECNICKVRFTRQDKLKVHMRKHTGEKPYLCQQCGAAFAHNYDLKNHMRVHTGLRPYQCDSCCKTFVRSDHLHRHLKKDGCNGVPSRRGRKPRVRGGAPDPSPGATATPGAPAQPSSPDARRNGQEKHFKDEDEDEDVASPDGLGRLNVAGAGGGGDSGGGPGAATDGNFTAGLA

KLF3 = KLF3 (Homo sapiens, UniProt P57682); test: as above; settings: protein: extract
KLF3, sequence (P57682 whole entry): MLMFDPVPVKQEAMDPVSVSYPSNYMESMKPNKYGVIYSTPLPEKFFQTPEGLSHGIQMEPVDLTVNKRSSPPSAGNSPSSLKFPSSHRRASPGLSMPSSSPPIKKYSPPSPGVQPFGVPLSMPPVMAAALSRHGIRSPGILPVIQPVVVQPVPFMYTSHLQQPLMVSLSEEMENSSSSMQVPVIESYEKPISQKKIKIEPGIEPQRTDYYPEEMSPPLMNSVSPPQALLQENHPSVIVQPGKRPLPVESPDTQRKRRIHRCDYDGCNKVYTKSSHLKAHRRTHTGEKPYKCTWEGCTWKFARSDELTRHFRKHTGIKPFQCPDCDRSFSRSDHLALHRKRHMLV

SP4 = SP4 (Homo sapiens, UniProt Q02446); test: as above; settings: protein: extract
SP4, sequence (Q02446 whole entry): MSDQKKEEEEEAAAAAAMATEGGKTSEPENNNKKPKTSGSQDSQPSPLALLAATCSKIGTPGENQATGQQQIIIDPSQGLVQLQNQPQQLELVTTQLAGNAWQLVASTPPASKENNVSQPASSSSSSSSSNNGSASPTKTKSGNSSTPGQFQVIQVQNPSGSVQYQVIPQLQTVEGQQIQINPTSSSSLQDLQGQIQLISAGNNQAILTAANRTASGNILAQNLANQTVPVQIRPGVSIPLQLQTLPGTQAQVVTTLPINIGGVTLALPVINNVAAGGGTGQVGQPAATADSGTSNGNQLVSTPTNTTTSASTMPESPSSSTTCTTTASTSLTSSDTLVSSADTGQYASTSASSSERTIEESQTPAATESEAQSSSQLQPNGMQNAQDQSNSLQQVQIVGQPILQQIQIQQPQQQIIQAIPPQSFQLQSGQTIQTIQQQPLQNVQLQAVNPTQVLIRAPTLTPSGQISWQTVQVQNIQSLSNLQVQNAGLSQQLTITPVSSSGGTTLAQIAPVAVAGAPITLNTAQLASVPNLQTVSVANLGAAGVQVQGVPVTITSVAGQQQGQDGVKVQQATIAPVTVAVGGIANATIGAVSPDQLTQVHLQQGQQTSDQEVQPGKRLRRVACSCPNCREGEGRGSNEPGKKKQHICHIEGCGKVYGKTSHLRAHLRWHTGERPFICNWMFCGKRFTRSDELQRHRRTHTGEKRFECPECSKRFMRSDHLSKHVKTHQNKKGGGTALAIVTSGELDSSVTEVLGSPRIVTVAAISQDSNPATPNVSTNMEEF

KLF13 = KLF13 (Homo sapiens, UniProt Q9Y2Y9); test: as above; settings: protein: extract
KLF13, sequence (Q9Y2Y9 whole entry): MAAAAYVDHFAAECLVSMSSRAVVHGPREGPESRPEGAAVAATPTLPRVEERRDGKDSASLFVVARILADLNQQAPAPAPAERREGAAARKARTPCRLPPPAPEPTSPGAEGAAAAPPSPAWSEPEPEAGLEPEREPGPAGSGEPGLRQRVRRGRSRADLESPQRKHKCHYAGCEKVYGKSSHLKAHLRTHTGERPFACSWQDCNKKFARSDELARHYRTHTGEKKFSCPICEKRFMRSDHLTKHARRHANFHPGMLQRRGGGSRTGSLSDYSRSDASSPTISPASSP

VEZF1 = target: T2, VEZF1; test: as above; settings: protein: extract
SP1 = SP1 (Homo sapiens, UniProt P08047); test: as above; settings: protein: extract
SP1, sequence (P08047 whole entry): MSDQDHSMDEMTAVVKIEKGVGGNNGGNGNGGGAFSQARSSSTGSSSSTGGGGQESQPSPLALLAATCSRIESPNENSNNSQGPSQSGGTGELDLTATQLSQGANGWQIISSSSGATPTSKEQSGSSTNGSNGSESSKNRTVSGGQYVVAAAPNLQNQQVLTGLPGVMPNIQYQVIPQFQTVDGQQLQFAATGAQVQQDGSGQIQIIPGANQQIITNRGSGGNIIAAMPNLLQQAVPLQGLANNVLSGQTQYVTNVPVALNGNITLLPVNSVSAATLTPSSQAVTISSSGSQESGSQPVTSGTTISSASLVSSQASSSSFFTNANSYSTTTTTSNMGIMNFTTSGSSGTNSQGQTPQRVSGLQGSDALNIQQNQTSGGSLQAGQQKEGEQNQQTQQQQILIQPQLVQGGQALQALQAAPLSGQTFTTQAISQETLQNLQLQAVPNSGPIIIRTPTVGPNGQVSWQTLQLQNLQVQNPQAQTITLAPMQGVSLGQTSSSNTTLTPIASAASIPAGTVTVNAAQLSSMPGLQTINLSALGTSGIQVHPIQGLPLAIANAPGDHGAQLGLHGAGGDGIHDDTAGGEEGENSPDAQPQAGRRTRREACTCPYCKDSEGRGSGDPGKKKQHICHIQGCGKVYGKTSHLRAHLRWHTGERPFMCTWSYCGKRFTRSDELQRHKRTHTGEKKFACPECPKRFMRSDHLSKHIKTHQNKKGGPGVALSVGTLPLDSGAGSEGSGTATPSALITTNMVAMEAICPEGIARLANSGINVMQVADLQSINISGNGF

KLF16 = KLF16 (Homo sapiens, UniProt Q9BXK1); test: as above; settings: protein: extract
KLF16, sequence (Q9BXK1 whole entry): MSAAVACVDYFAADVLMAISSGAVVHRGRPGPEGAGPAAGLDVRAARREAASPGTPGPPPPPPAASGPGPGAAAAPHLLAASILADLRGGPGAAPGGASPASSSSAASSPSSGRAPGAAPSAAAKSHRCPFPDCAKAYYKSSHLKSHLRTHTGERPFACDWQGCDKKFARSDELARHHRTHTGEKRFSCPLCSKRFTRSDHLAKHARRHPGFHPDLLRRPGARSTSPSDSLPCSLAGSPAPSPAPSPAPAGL

| Binder | apparent K (half saturation) (TEAD4) | IC50 (KLF4) | IC50 (SP3) | IC50 (ZNF281) | IC50 (KLF10) | IC50 (ZBTB7A) | IC50 (KLF3) | IC50 (SP4) | IC50 (KLF13) | IC50 (VEZF1) | IC50 (SP1) | IC50 (KLF16) |
| --- | --- | --- | --- | --- | --- | --- | --- | --- | --- | --- | --- | --- |
| B1 | 15.3 nM | – | – | – | – | – | – | – | – | – | – | – |
| B2 | – | 229 nM | 147 nM | 176 nM | 111 nM | 263 nM | 112 nM | 87.5 nM | 86.2 nM | 270 nM | 192 nM | 176 nM |
